# Measured values taken from patent publication US20120157824.
# Experiments:
# [1] = test system: oligopeptide linker containing the urokinase-specific cleavage sequence SGRSA (SEQ ID NO: 2)
# [2] = test system: T1, cleavage sequence for urokinase DGAGSGRSAGAGD (SEQ ID NO: 66) linking porphyrin-labeled stealth coated Fe/Fe3O4 nanoparticles
# T1 sequence: DGAGSGRSAGAGD
# [3] = test system: T2, GAGSGRSAGAG linkage (SEQ ID NO: 66, deleted by 1 residue at each of the N-terminus and C-terminus) between nanoparticle and non-metalated TCPP
# T2 sequence: GAGSGRSAGAG
# [4] = test system: T3, cleavage sequence DGGGSGRSAGGGD (SEQ ID NO: 65) coupled to TCPP and to stealth-coated Fe/Fe3O4 nanoparticles
# T3 sequence: DGGGSGRSAGGGD
# [5] = test system: T4, GAGSGRSAGA oligopeptide sequence (SEQ ID NO: 66, deleted at the N-terminus by 1 residue and the C-terminus by 2 residues) linking Fe/Fe3O4/ASOX/stealth-nanoparticles into oligomers
# T4 sequence: GAGSGRSAGA
# [6] = test system: urokinase consensus sequence linker DGGSGRSAGGGC (SEQ ID NO: 68) linking Fe/Fe3O4 nanoplatforms
# Chain of urokinase in rat urine (chain, as listed by the source): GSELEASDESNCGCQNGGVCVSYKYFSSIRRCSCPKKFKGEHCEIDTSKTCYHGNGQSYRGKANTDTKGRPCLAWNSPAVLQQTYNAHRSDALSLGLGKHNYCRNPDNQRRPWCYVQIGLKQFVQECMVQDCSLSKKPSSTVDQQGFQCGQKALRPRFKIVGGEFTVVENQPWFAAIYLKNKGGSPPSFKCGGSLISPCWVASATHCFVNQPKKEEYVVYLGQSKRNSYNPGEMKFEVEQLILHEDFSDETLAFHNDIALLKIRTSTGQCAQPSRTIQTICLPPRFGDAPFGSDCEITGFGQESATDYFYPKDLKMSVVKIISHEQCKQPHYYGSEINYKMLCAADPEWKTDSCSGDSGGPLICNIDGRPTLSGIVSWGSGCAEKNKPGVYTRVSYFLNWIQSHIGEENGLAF
# Chain of urokinase in canine urine (chain, as listed by the source): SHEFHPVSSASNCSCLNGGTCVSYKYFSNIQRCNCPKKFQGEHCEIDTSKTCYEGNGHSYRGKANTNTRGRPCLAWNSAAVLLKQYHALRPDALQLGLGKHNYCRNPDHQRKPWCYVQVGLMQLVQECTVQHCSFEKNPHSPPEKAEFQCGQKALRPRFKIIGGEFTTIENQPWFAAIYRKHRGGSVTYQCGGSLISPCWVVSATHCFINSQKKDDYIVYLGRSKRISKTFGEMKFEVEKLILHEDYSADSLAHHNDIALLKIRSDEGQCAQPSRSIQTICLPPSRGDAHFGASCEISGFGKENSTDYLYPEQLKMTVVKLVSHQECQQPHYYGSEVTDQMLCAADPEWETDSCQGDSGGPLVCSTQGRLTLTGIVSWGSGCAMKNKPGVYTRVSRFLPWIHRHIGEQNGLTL
substance,measurement,setting,value
urokinase in canine urine,"fluorescence enhancement over time, Sample B (dog undergoing chemotherapy)",[1],"had a detectable enhancement in fluorescence than the control (Sample A), but was still much lower than Sample C"
same,"fluorescence enhancement over time, Sample C (dog just diagnosed with cancer)",[1],showed a rapid increase in fluorescence
"urokinase (Sigma Aldrich, St. Louis, Mo.)",r2/r1 (MRI relaxivity ratio) at t = 0 min,[2],-27.6
same,r2/r1 (MRI relaxivity ratio) at t = 5 min,[2],-21.9
same,r2/r1 (MRI relaxivity ratio) at t = 10 min,[2],-19.6
same,r2/r1 (MRI relaxivity ratio) at t = 15 min,[2],-16.8
same,r2/r1 (MRI relaxivity ratio) at t = 20 min,[2],-16.5
same,r2/r1 (MRI relaxivity ratio) at t = 25 min,[2],-15.8
same,r2/r1 (MRI relaxivity ratio) at t = 30 min,[2],-15.3
same,r2/r1 (MRI relaxivity ratio) at t = 40 min,[2],-14.8
same,r2/r1 (MRI relaxivity ratio) at t = 50 min,[2],-14.1
same,r2/r1 (MRI relaxivity ratio) at t = 60 min,[2],-13.5
same,T1 relaxivity r1 after protease cleavage of the linker,[1],r1 increased slightly to 180±20 mM s^-1
same,T2 relaxivity r2 after protease cleavage of the linker,[1],"r2 increased to -2,350±250 mM s^-1"
same,"fluorescence lifetime τ1, Fe/Fe3O4-linkage-TCPP plus urokinase (1×10^-7 M)",[3],1.39 ns
same,"fluorescence lifetime τ1, Fe/Fe3O4/ASOX/Au-linkage-TCPP plus urokinase (1×10^-7 M)",[3],1.47 ns
same,"fluorescence lifetime τ2, Fe/Fe3O4-linkage-TCPP plus urokinase (1×10^-7 M)",[3],30 ns
same,"fluorescence lifetime τ2, Fe/Fe3O4/ASOX/Au-linkage-TCPP plus urokinase (1×10^-7 M)",[3],29.3 ns
same,"overall fluorescence enhancement, 10 min. after urokinase was added",[3],The overall fluorescence enhancement of this system was approx. 75 (10 min. after urokinase was added)
same,"relative contribution f1, Fe/Fe3O4-linkage-TCPP plus urokinase (1×10^-7 M)",[3],78
same,"relative contribution f1, Fe/Fe3O4/ASOX/Au-linkage-TCPP plus urokinase (1×10^-7 M)",[3],80
same,"relative contribution f2, Fe/Fe3O4-linkage-TCPP plus urokinase (1×10^-7 M)",[3],22
same,"relative contribution f2, Fe/Fe3O4/ASOX/Au-linkage-TCPP plus urokinase (1×10^-7 M)",[3],20
same,"optical extinction (absorption + scattering) over 40 min, urokinase 1×10^-10 M",[4],the observable change of the extinction is caused by the change in scattering once the oligopeptide-tether is cleaved by the enzyme
same,signal intensity at 440 nm divided by signal intensity at 600 nm vs. time,[4],a linear slope has been obtained
same,T1 of H2O 10 minutes after adding 1×10^-14 mol urokinase per ml (3.004 seconds before),[5],"After 10 minutes, T1 had decreased to 2.003 seconds"
same,T2 of H2O 10 minutes after adding 1×10^-14 mol urokinase per ml (0.07579 seconds before),[5],T2 had increased to 0.1334 seconds
urokinase in rat urine,"luminescence of TCPP released from the nanoplatform, 36 day urine",[1],the luminescence from TCPP increased steadily over time for the 36 day urine
same,"luminescence of TCPP released from the nanoplatform, control (5 day urine)",[1],The control (5 day urine) did not demonstrate a significant increase in luminescence
same,"UV/Vis backscattering spectrum of the nanoparticle-dimer over 120 minutes, rat urine (estimated urokinase 5×10^-10 M)",[6],The change in the optical properties is clearly discernible upon the cleavage of the oligopeptides-linker by urokinase
